Experimental data from patent publication US20140328849A1 (Genentech, published 2014).

How the values were obtained:
rhesus monkey CRTh2 [1] = molecular target: T1, rhesus monkey CRTh2 (rhesus monkey, UniProt Q9Y5Y4 1-395 (human entry)); assay: flow cytometry on 300.19 cells expressing amino-terminal Flag-tagged rhesus CRTh2
T1 construct: also called rhesus CRTh2
T1 chain: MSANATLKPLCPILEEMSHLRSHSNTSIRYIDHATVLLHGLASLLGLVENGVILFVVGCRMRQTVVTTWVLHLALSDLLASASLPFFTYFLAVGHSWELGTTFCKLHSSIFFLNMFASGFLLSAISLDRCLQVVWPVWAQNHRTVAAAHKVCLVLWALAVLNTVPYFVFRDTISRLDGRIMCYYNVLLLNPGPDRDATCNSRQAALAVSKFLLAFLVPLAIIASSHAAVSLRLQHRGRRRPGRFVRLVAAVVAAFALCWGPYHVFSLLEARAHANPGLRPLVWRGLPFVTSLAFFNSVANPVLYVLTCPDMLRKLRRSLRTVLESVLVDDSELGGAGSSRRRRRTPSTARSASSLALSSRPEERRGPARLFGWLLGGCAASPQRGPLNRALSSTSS

cynomolgus monkey CRTh2 = molecular target: T2, cynomolgus monkey CRTh2 (cynomolgus monkey, UniProt Q9Y5Y4 1-395 (human entry)); assay: flow cytometry on 300.19 cells expressing amino-terminal Flag-tagged cynomolgus CRTh2 [Cont.]
T2 construct: also called cyno CRTh2; cynomologous CRTh2
T2 chain: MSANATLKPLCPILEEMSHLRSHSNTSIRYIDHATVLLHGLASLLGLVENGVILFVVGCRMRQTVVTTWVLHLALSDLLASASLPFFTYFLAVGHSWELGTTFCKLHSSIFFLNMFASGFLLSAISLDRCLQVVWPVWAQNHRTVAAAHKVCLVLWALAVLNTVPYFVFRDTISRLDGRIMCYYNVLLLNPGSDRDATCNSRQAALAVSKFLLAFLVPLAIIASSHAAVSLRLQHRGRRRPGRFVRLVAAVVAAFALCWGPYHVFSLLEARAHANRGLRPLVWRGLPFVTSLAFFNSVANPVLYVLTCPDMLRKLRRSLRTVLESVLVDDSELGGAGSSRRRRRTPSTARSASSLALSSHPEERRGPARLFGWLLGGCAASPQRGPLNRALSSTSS

rhesus monkey CRTh2 [2] = molecular target: T1, rhesus monkey CRTh2; assay: flow cytometry on 293 cells expressing rhesus CRTh2

B1: mouse anti-human CRTh2 monoclonal antibody 8B1 (antibody, V domains shown)
VH: QVQLQQSGTGLVRPGTSVRVSCKASGYAFITYLIEWIKQRPGQGLEWIGVIHPGSGNSHYNEKFKGKATLTADTSSSTAYMQLSSLTSGDSAVYFCARSGSSSFDYYAMDFWGQGTSVTVSS
VL: DIQMTQSPSSLSASLGERVSLTCRASQEISGYFSWLQQKPDGTIKRLIYAASTLDSGVPKRFSGSRSGSDYSLTISSLESEDFADYYCLQYANYPYTFGGGTKLEIK
notes: also called mu8B1; Mab 8B1
Rhesus monkey CRTh2 [1]
  binding result: no binding (tested: 5 ug/ml)
Cynomolgus monkey CRTh2
  binding result: no binding (tested: 1 ug/ml)

B2: mouse anti-human CRTh2 monoclonal antibody 19A2 (antibody, mouse IgG2a, V domains shown)
VH: EVKLVESGGGLVQPGGSLKLSCAASGFTFSSYSMSWVRQTPEKRLEWVAYISNGGSTTYYPGTVEGRFTISRDNAKNTLFLQMSSLRSKDTAMYYCARHRTNWDFDYWGQGTTLTVSS
VL: DIQMTQSPASLSVSVGETVTITCRASENIYSNLAWYQQKQGKSPQLVVYAATQLADGVPSRFSGSGSGTQYSLKINSLQSEDFGSYYCQHFWITPWTFGGGTKLEIK
notes: also called mu19A2; Mu19A2
Rhesus monkey CRTh2 [2]
  binding result: no binding (tested: 20 ug/ml)
